# Laboratory results from the supplement of paper PMC12042874.
# ± gives the uncertainty stated by the source.
# Assay: amyloid nucleation score (Sup35N fusion, yeast selection) (log enrichment); library NNK2; higher = more nucleation; inactive = no reads after selection
# How it was run: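 The nucleation score is the log enrichment of output over input reads, calculated with DiMSum and centred on the mode score of non-aggregating sequences. Sequences with under 100 input reads were excluded. Reads came from Illumina sequencing of plasmid inserts from psi-negative yeast expressing Sup35N fused to peptides of 20 random codons, induced 24 hours with 100 μM copper sulfate and grown 7 days at 30°C without adenine and uracil.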
row,Substance,amyloid nucleation score
1,KKVFLTFLEFVFNAISGWWV,-0.67 ± 0.79
2,KLFRQQCDS,0.247 ± 0.8
3,KLGLVKMSPYIMFTHVCDGW,-0.217 ± 0.23
4,KLIYLGGSSEFGTHFSA,-0.429 ± 0.61
5,KLLAVVLFGDGLAFNN,3.24 ± 0.064
6,KLPFELKSDDFTCFNWANSR,-0.097 ± 1.1
7,KLQLVTLW,3.66 ± 0.072
8,KLRGIPYRF,inactive
9,KLRIVMMNRIFTSNL,5.16 ± 0.1
10,KLVCRMTGCFWVVFIACPYY,0.175 ± 0.35
11,KLVLSNSALFRRTFAINPV,0.626 ± 0.8
12,KLYLVWPTCGDGCSFGLRAT,-0.194 ± 0.24
13,KMPWMTCSHVTFTRIHSKIS,-0.57 ± 0.48
14,KMSELWFVIKPWFWIMGLEK,-0.403 ± 1.1
15,KNDLPRKKVL,0.128 ± 0.4
16,KNIVVTSPVLMNST,-0.179 ± 0.63
17,KNKWRSMV,0.953 ± 0.18
18,KNYVYWDLIHRFCLSTMR,1.62 ± 0.52
19,KPWTYDMVCSRFTSMWFCDY,0.644 ± 0.38
20,KRDFPISATSRLCVAFFFIY,-0.975 ± 0.38
21,KRDLGFRVVLWYLW,-0.942 ± 0.6
22,KRGRDV,-0.292 ± 0.49
23,KRKLSKYFLRLKLKCFWVM,-0.753 ± 0.48
24,KRLVEAVKFWWQVRNGLKVR,0.518 ± 0.29
25,KRQSRAVMVS,0.037 ± 0.63

row,Substance,amyloid nucleation score
1,KRSKSR,inactive
2,KRSSGRVFHPRMSRW,0.641 ± 0.4
3,KRYLTGSEVIVGWCC,0.329 ± 0.38
4,KSCFWLRDI,-0.457 ± 0.28
5,KSCGNGHISDVIYLRGMLGV,-0.538 ± 0.55
6,KSESLLPLNWAHARALIHRA,1.1 ± 0.36
7,KSHHGWSTIRCNRWYIS,inactive
8,KSPCIVQTTILYNYMAVVIS,3.83 ± 0.12
9,KSPNHSDRVQWMKYTFWYTL,-0.003 ± 1.1
10,KTFFVYIRSNYCV,-1.24 ± 0.62
11,KTGVGTYIPQWDCNGHEMVS,0.423 ± 0.35
12,KTISNYVAGN,inactive
13,KTMANI,-0.403 ± 0.37
14,KTQKLLGRAWRNYGYGCCVR,-0.487 ± 1.1
15,KTSWFGYSWNDHHSIRHQCS,0.84 ± 0.43
16,KTSWVVYDGFRARDARSWRS,-0.245 ± 0.48
17,KTYDGGFKRNRDEVGPKPGE,-0.326 ± 1
18,KVEALDVTRGIVPGKSLAVR,0.249 ± 0.55
19,KVHNLMGESGIKLYYVRFAH,inactive
20,KVIMVLFRFDMSIWGWQTDI,-0.628 ± 0.76
21,KVLRLIRY,1.25 ± 0.48
22,KVMNNIL,-0.093 ± 0.36
23,KVNKCIIRQLDLNMPLASRW,0.584 ± 0.46
24,KVQNWMLNTHGFYSLRGFDQ,-0.857 ± 0.41
25,KVRLGTLTYICYANSNRLCP,2.37 ± 0.12

row,Substance,amyloid nucleation score
1,KVVITQSRVGTLESVKVFYV,1.77 ± 0.19
2,KVYINHGFGNFEVCSRWVFE,-0.055 ± 1.1
3,KWFGSRFYYLYKPPLFSHLA,inactive
4,KWIYQIFPVMALECKGVLH,2.85 ± 0.15
5,KWLTAHAAYLWSETEVRMVV,0.673 ± 0.27
6,KWNVFGDDGMREARLNLSGV,-0.69 ± 0.74
7,KYERYLNRFSLLLRTAMVHR,-0.362 ± 0.29
8,KYIYVYNSIGVP,-0.277 ± 1
9,KYTGMKYRPTVCLGVEVQLK,3.83 ± 0.062
10,KYVVVYDSVYGFSVSGFSLW,0.777 ± 0.19
11,LACLVIFMTVSDMDVLSGLF,-0.39 ± 0.21
12,LACVKMFSGVFV,0.06 ± 0.65
13,LADTLVSESKYKWLF,-0.032 ± 1.1
14,LAFYSFIRYTRLSIEMVAIS,-0.741 ± 0.31
15,LAGCSMSGVVEC,1.13 ± 0.22
16,LAGITWISSTVRDVSYMRRR,2.72 ± 0.1
17,LAKRGCVIVCFLTFHYTIRR,-0.348 ± 0.28
18,LALSFIMMCPYR,4.95 ± 0.079
19,LALSRYFGL,-0.909 ± 0.54
20,LANKAYYVCLV,0.022 ± 0.62
21,LANNSERMAAQDEVYSNCRM,-0.506 ± 0.24
22,LAPCISNMSRLL,-1.25 ± 0.36
23,LAQMQR,-0.169 ± 0.8
24,LAQWLTRLYAK,1.12 ± 0.4
25,LASTALVLDP,1.14 ± 0.31

row,Substance,amyloid nucleation score
1,LAYCGYIHDLFGGILIKLDG,-0.081 ± 1.1
2,LCEALRFVIYCKLTSFVPFN,-0.632 ± 0.61
3,LCFYPVTTCKPIFRPLYVLP,0.562 ± 0.45
4,LCGAKRFMRVQAFEQNVYSR,0.401 ± 0.37
5,LCGSQFL,0.705 ± 0.66
6,LCKFFDTVVSMLGSVCSGNQ,3.22 ± 0.1
7,LCKVCSMITVGSGSGSVYSQ,inactive
8,LCLEAWERRCI,-0.588 ± 0.17
9,LCLIGRYRMSERALRLRWLV,2.54 ± 0.11
10,LCNAKAS,-0.815 ± 0.64
11,LCNSYYFFDSCVIEPYIPLL,5.646 ± 0.054
12,LCPYYNLWS,inactive
13,LCSWLEMGFIIRFAGIVRLD,-0.292 ± 0.54
14,LCVEELMTCVCWVRS,0.47 ± 0.26
15,LCVIIMFLIIYYNEEFVWSQ,inactive
16,LCYHLYTRVITCFLLIDLVC,-0.27 ± 1.1
17,LCYPCRACPGTKNALADRLG,3.56 ± 0.087
18,LDCIS,-0.647 ± 0.55
19,LDDPGLK,0.76 ± 0.14
20,LDDVNMWFHIGNGRGGGELW,0.092 ± 1.1
21,LDIYYFKKNSWAFHGSAGYP,1.87 ± 0.11
22,LDKAIHSWGVLDWAVKQDNA,0.293 ± 0.26
23,LDLCTPRSNKTMVNHDINYF,-1.64 ± 0.77
24,LDLMKSSLGCQKG,-0.001 ± 0.23
25,LDMGCNRPEVYGNKCAMVSW,0.75 ± 0.21

row,Substance,amyloid nucleation score
1,LDTCVFHHLVGIEKATIYR,0.455 ± 0.48
2,LDVIDGYWTGRMTSSFSWMN,0.679 ± 0.47
3,LDYLDSVSINGIVQFKQMVW,-0.285 ± 0.26
4,LELVCRPISMALLEEWKGTR,0.393 ± 0.48
5,LESVWHILGGFGIMVFYITK,inactive
6,LESYSQCTLTHSNCVLTDEC,0.909 ± 0.57
7,LEVHKGGLNVLSHEGLDVET,1.19 ± 0.4
8,LEYERC,-0.097 ± 1.1
9,LFAYNDAFSEYFTITYVYQ,-1.14 ± 1.1
10,LFCSYPNTASRKLAIGIVAS,0.438 ± 0.55
11,LFFTKGKLFNEAI,inactive
12,LFIRSIRPMDVVGVTLSAVE,0.764 ± 0.41
13,LFISVSYSEFVFQIQDALRC,1.48 ± 0.12
14,LFLLIIFLCTTYVVIKDPTH,2.73 ± 0.12
15,LFLSLRVRRYVQHKKSGSAG,0.082 ± 1.1
16,LFNEDACTFLTMCANIKVGQ,4.97 ± 0.081
17,LFPFRASRGPVPYKRDQ,1.89 ± 0.52
18,LFQSLNLISINSVVPYEPVT,2.43 ± 0.092
19,LFSCFKTEWFCITRMDGLIM,5.731 ± 0.036
20,LFSILAGS,0.575 ± 0.46
21,LFTIVTTFKRS,6.443 ± 0.056
22,LFVALVGDLFCCWVCGSYGV,-1.43 ± 0.78
23,LFVASVSLTAHNRGGDTWRR,5.8 ± 0.084
24,LFVLDNMDDIWNSIISWVGR,-0.295 ± 0.65
25,LFVPGLNR,0.047 ± 0.31

row,Substance,amyloid nucleation score
1,LFWFLCNVMERYRWNVDAYR,-0.625 ± 0.45
2,LFYGLGLICFLISFPIELNH,inactive
3,LFYGNWPVFKGVLFCAVLVG,0.092 ± 0.79
4,LFYSPSVGCWFLFSYGPHIG,inactive
5,LGGSSENYGVDCNYYPEMWG,-1.24 ± 0.54
6,LGGTY,-0.449 ± 0.64
7,LGGVSSHSELMPRVKVNWLT,inactive
8,LGGWLNGKGDPSMTASTSAS,0.799 ± 0.32
9,LGHHIVFAVTPKWTYDDDIK,0.679 ± 0.62
10,LGHHVQYLRFVWLWQND,1.17 ± 0.22
11,LGITITARAIIE,-0.898 ± 1.1
12,LGLCHMLLSDAGWRVRCRGK,0.276 ± 1
13,LGMCYWGLVTCH,0.749 ± 0.38
14,LGNIGRTFMYHS,1.09 ± 0.27
15,LGNRLSKIAVGTSFKLFKK,0.138 ± 1.1
16,LGPALFICSDEGDMPL,-0.598 ± 0.63
17,LGSCHAMRLIEDGSGMEWMF,0.645 ± 0.37
18,LGTSWHHRAKE,3.31 ± 0.086
19,LGVCICPCRAPEMKDTSHDA,4.92 ± 0.076
20,LGYDDGYVAGRGKADMFSLD,inactive
21,LGYFFGSTFSRAVLFVRLRR,-0.097 ± 0.52
22,LHGVVGLFKY,-1.55 ± 0.41
23,LHLFAKSATSLVIVFAQDLI,-0.455 ± 0.42
24,LHNLAAGNSRLTSNLMFALA,inactive
25,LHSATNG,0.208 ± 0.37

row,Substance,amyloid nucleation score
1,LHTYYGMCLPRVENISENRV,inactive
2,LHVHLGSEGPLHNKIVDAAK,-0.168 ± 0.42
3,LIEAESSDRGPYVPNQCGWN,1.11 ± 0.68
4,LIFLSDFLLPPSSPARDPYL,-0.719 ± 1.1
5,LIFSAEMNLIVTDWTVRLSS,0.496 ± 0.8
6,LIGFLEEKVLLFIITWCFQ,inactive
7,LIISRTFVTAPM,inactive
8,LIKLMGKSLTRDRY,-0.771 ± 1.1
9,LILALVPLLCWMVNGW,-0.567 ± 1.1
10,LIMYR,-0.83 ± 0.3
11,LINFSFSDTAVFYVREGWEH,6.846 ± 0.039
12,LIRQMYMGRFYAVNRENH,-0.743 ± 0.79
13,LISLTPRSSRPSNERNSSTL,1.63 ± 0.47
14,LIVCRFDFPSNFSVDFFRVM,0.14 ± 0.74
15,LIVYKLV,-0.094 ± 0.74
16,LIYGDASETLC,0.227 ± 0.43
17,LKFRRYVCKVLWEAYG,0.153 ± 0.43
18,LKLRAPRVMSGIVDSLMWLT,-0.32 ± 0.63
19,LKNRILPFSNHELIVAGLGL,-0.388 ± 1
20,LKNYSGLMPVI,3.41 ± 0.068
21,LKPPLVAHHGNILCGFLGDG,-1.39 ± 0.78
